In assay [1] the target is Dansyl-calmodulin (rat) (UniProt P0DP29). In words: other fluorescence titration; D-CaM (12.5 nM) fluorescence enhancement on adding increasing concentrations of GST-fusion protein; 3.9 μM free Ca2+; Hill fit; apparent binding affinity (EC50).
Assay [2] has the same target. In words: other fluorescence titration; D-CaM (12.5 nM) fluorescence enhancement on adding increasing concentrations of GST-fusion protein; absence of Ca2+ (10 mM EGTA added); Hill fit; apparent binding affinity (EC50).
The target in assay [3] is GST-Kv7.2 helices A-B fusion protein (G310-L548) K526N (human). In words: pull-down; purified GST fusion proteins immobilised on GSH-Sepharose 4B beads; CaM (10 μg) added, 45 min, room temperature; 25 mM Hepes, 120 mM KCl, 5 mM NaCl, pH 7.5 with 100 μM CaCl2; anti-CaM Western blot, band intensities quantified (n = 3).

Turning to “GST-Kv7.2 helices A-B fusion protein (G310-L548) R333Q (domain or fragment)”, the EC50 is 30.1 nM in assay [1] and 12.6 nM in assay [2]. As for “Recombinant rat brain calmodulin (from UniProt P0DP29 1-149) (natural protein)”, in assay [3], the percent lower CaM signal intensity than WT is 42%. In the case of “GST-Kv7.2 helices A-B fusion protein (G310-L548) K526N (domain or fragment)”, the results for the 50% effective concentration (EC50) in assay [1] and in assay [2] were 55.9 nM and 37.3 nM, respectively.

For the origin of these results see paper PMC6161613.
